Test [1] has as its target surfactant protein A (SP-A) in human broncho-alveolar lavage fluid (human (endogenous in BAL fluid)) (UniProt Q8IWL2). Kind of test: latex bead agglutination (light microscopy); whole serum or BAL sample; streptavidin latex beads with biotinylated rabbit anti-goat antibody and goat anti-human SP-A antibody (N19); Hank solution, 6.5 mM Ca2+, 3 h at 4°C on a microscope slide; size of the biggest agglutinate in pixel.

In test [2] the target is surfactant protein A (SP-A) in human serum (human (endogenous in serum)) (UniProt Q8IWL2). The description is as above.

For the substance “surfactant protein A (SP-A) in human broncho-alveolar lavage fluid (from UniProt Q8IWL2 21-248) (natural protein)”, the size of the agglutinates in test [1] was found to be 1060 pixel.
On to “surfactant protein A (SP-A) in human serum (from UniProt Q8IWL2 21-248) (natural protein)”, for which the size of the agglutinates in test [2] was 1360 pixel.

The values above are taken from PMC2995781.
